Source: patent US20250340623A1

Assays:
[1] = biological target: alpha-synuclein fibrils, P37840; assay: SPR, captured mAb; details: remark: other sources report otherwise
[2] = biological target: monomeric alpha-synuclein, P37840; assay: SPR, captured mAb; details: remark: other sources report otherwise

| Kd [1] | koff [1] | kon [1] | Kd [2] | koff [2] | kon [2] | Binder |
| --- | --- | --- | --- | --- | --- | --- |
| 8.8 nM | 0.000161 s⁻¹ | 18300 M⁻¹ s⁻¹ | 2.4 nM | 0.00051 s⁻¹ | 210000 M⁻¹ s⁻¹ | ACI-7079-2506F3-Ab1 (antibody, V domains shown) VH: QVQLQQPGAELVKPGASVKLSCKASGYTFTTYWMQWVKQRPGQGLEWIGEIDPSDSYINYNQKFKGKATLTVDTSSSTAFMQLSSLTSEDSAVYYCARGMMDYWGQGTSVTVSS VL: DVLMTQTPLSLPVSLGDQASISCRSSQSIVHSNGNTYLEWYLQKPGQSPKLLIYKVSNRFSGVPDRFSGSGSGTDFTLKISRVEAEDLGVYYCFKGSHVPYTFGGGTKLEIK |
| 9.4 nM | 0.000606 s⁻¹ | 64700 M⁻¹ s⁻¹ | 1 nM | 0.00107 s⁻¹ | 1.04e+06 M⁻¹ s⁻¹ | ACI-7088-4303A3-Ab1 (antibody, V domains shown) VH: QVQLQQSGAELVRPGASVTLSCKASGYTFTDYEMHWVKQTPVHGLEWIGVIDPETGGAVQNQKFKGKAILTADNSSSTAYMDLRSLTSEDSAVYNCAMGAALRLAYWGQGTLVTVSS VL: DVLMTQTPLSLPVSLGDQASISCRSSQSIVHSNGNSYLEWYLQKPGQSPKLLIYKVSNRFSGVPDRFSGSGSGTDFTLKINRVEAEDLGVYYCFQGSHVPFTFGSGTKLEIK |
| 3.7 nM | 6.54e-05 s⁻¹ | 17700 M⁻¹ s⁻¹ | – | – | – | ACI-8033-1G10-Ab1 (antibody, V domains shown) VH: DVQLQESGPGLVKPSQTVFLTCTVTGISITTGNYRWSWIRQFPGNKLEWIGYIYYSGTITYNPSLTSRTTITRDTPKNQFFLEMNSLTAEDTATYYCARIYYGNAMDYWGQGTSVTVSS VL: DVVMTQTPLSLPVSLGDQASISCRSSQSLVHSNGNTYLHWYLQKPGQSPKLLIYKVSNRFSGVPDRFSGSGSGTDFTLKISRVEAEDLGVYFCSQSTHVPHTFGGGTKLEIK |
| 34.9 nM | 0.000668 s⁻¹ | 19100 M⁻¹ s⁻¹ | 2.6 nM | 0.000642 s⁻¹ | 245000 M⁻¹ s⁻¹ | ACI-7079-2507B3-Ab1 (antibody, V domains shown) VH: EVQLVESGGGLVQPKGSLKVSCAASGFTFKTYAMHWVRQAPGKGLEWVARIRSENSNFAKYYADSVKDRFTISRDDSQSMLYLQMHTLKTEDTAIYYCVRGYNGSSLDYWGQGTTLTVSS VL: QIVLTQSPAIMSAFPGERVTMTCSASSSVNYMHWYQQKSGTSPKRWIYDTSKLASGVPARFSGGGSGTSYSLTISNMEAEDAATYYCQQWRSNPPTFGGGTKLEIK |
| 25 nM | 0.00721 s⁻¹ | 284000 M⁻¹ s⁻¹ | 23.2 nM | 0.005 s⁻¹ | 218000 M⁻¹ s⁻¹ | ACI-7067-1106A8-Ab2 (antibody, V domains shown) VH: EVQLVESGGGLVQPKGSLKLSCAASGFTFNTYAMHWVRQAPGKGLEWVARIRSKGSNYATNYADSVKDRFTISRDDSQSMLYLQMNNLKTEDTAMYYCVRGHGSSYFSYWGQGTLVTVSA VL: QIVLTQSPAIMSASPGEKVTMTCSASSSVSYMHWYQQKSGTSPKRWIYDTSNLASGVPARFSGSGSGTSYSLTISSMEAEDAATYYCQQWNSHPPTFGAGTKLELK |
| 86.5 nM | 0.000898 s⁻¹ | 10400 M⁻¹ s⁻¹ | 119 nM | 0.00329 s⁻¹ | 27600 M⁻¹ s⁻¹ | ACI-7088-4301H3-Ab2 (antibody, V domains shown) VH: EVQLQQSGPELVKPGASVKISCKASGYTFADYFMNWVKQSHGKSLEWIGDINPNNGGTTYNQKFKGKATLTVDKSSNTAYMELRSLTSEDSAVYYCARGRNYAMDYWGQGTSVTVSS VL: DIVMSQSPSSLAVSAGEKVTMSCKSSQSLLNSRTRKNYLAWYQQKPGQSPKLLIYSASTRESGVPDRFTGSGFGTDFTLTISSVQAEDLAVYYCKQSYDLWTFGGGTKLEIK |
| 13.5 nM | 0.000244 s⁻¹ | 18100 M⁻¹ s⁻¹ | 37.1 nM | 0.0632 s⁻¹ | 1.7e+06 M⁻¹ s⁻¹ | ACI-7088-4303A1-Ab1 (antibody, V domains shown) VH: EVQLQQSGAELVRPGASVKLSCTASGFNIKDDYMHWVKQRPEQGLEWIGWIDPENGDSEYASKFQGKATMTADTSSNTAYLQLSSLTSEDTAVYYCKTWGTAQALFPYWGQGTLVTVSA VL: DIVMTQSQKFMSTSVGDRVSITCKASQNVGTSVGWYQQKAGQSPKLLIHSASNRYTGVPDRFTGSGSGTDFTLTINNMQSEDLADYFCQQYRSYPLTFGAGTKLELK |
| 8.4 nM | 0.000203 s⁻¹ | 24200 M⁻¹ s⁻¹ | 3.4 nM | 0.0924 s⁻¹ | 2.73e+07 M⁻¹ s⁻¹ | ACI-7088-4305H7-Ab1 (antibody, V domains shown) VH: EVQLQQSGAELVRPGASVKLSCTASGFNIKDDYMHWVKQRPEQGLEWIGWIDPENGDTEYASKFQGKATMIADTSSNTAYLQLSSLTSEDTAVYYCKTWGTTQALFPYWGQGTLVTVSS VL: DIVMTQSQKFMSTSVGDRVSITCKASQNVGTAVGWYQQKAGQSPKLLIHSASNRYTGVPDRFTGSGSGTDFTLTINNMQSEDLADYFCQQYRSYPLTFGAGTKLELK |
| 29.5 nM | 0.000312 s⁻¹ | 10600 M⁻¹ s⁻¹ | 6.3 nM | 0.000583 s⁻¹ | 92800 M⁻¹ s⁻¹ | ACI-7079-2511B3-Ab3 (antibody, V domains shown) VH: DVQLQESGPGLVKPSQSLSLTCSVTGFSITSYYYWNWIRQFPGNKLEWMAYISYDGSNNYNPSLKNRISITRDTSKNQFFLKLNSVTTEDTATYYCTRGDWDWGQGTLVTVSA VL: not shown |
| 91.9 nM | 0.000476 s⁻¹ | 5190 M⁻¹ s⁻¹ | 7.6 nM | 0.000615 s⁻¹ | 80900 M⁻¹ s⁻¹ | ACI-7079-2506E2-Ab2 (antibody, V domains shown) VH: QVQLQQSGPELVRPGASVKISCKASGYAFSNSWMNWVKQRPGKGLEWIGRIFPGDGDTYYDGKFKGKVKLTTDKFSNTAYMQLRSLTSEDSAVYFCARWGGTNDEWFAHWGQGTLVTVSV VL: DIVLTQSPASLTVSLGQRATISCRASQSVSTSRNSYMHWYQQKPRQPPKLLIKYASNLESGVPARFSGSGSGADFTLNIHPVEEEDTATYYCQHSWDIPLTFGTGTKLELS |
| 43.7 nM | 0.000636 s⁻¹ | 14600 M⁻¹ s⁻¹ | 195 nM | 0.0067 s⁻¹ | 34400 M⁻¹ s⁻¹ | ACI-7088-4303H6-Ab1 (antibody, V domains shown) VH: EVQLQQSGAELVRPGASVKLSCTASGFNIQDDYMHWVKQRPEQGLEWIGWIDPENGDTEYASKFQGKATLTADTSSNTAYLQLSRLTSEDTAVYYCTTAGSGVQLFDYWGQGTTLTVSA VL: DILMTQSQKFMSTSVGDRVSVTCKASQNVGTNVAWYQQKPGQSPKPLISSASSRYSGVPDRFTGSGSGTDFTLTISNVQSEDLADYFCQQYNRYPLTFGAGTKLELK |
| 30.6 nM | 0.00135 s⁻¹ | 46000 M⁻¹ s⁻¹ | 8 nM | 0.00103 s⁻¹ | 129000 M⁻¹ s⁻¹ | ACI-7067-1102G3-Ab1 (antibody, V domains shown) VH: EVKLEESGGGLVQPGGSMKLSCAASGFTFSDAWMNWVRQSPEKGLEWVAEIRNKAHNHATYYAESVKGRFTISGDDSKSSVYLQMNNLRAEDTGIYYCTIYSYWGQGTLVTVSA VL: SIVMTQTPKFLLVSAGDRVTITCKASQSVTKDVAWYQQKPGQSPKLLIYSTSNRYSGVPDRFTGSGYGTDFTFTINTVQTEDLAVYFCQQDYRIPYTFGGGTKLEIK |
| 18.9 nM | 0.000234 s⁻¹ | 12400 M⁻¹ s⁻¹ | 3.9 nM | 0.000867 s⁻¹ | 223000 M⁻¹ s⁻¹ | ACI-7079-2602G4-Ab4 (antibody, V domains shown) VH: EVQLVESGGGLVQPKGSLKLSCAASGFTFKTYAMHWVRQAPGKGLEWVARIRSKGSDYATYYADSVKDRFTISRDDSQSMLYLQMNNLKTEDTAMYFCVRGGADSWFAYWGQGTLVTVST VL: QIVLTQSPAIMSASPGERITMTCTASSSVSYMHWYQQKSGTSPKRWIYDTSKLASGVPARFSGSGSGASYTLTISSMEAEDAATYYCQQWNRNPPTFGGGTQLAIK |
| 17.4 nM | 0.000294 s⁻¹ | 16800 M⁻¹ s⁻¹ | 3.9 nM | 0.00109 s⁻¹ | 283000 M⁻¹ s⁻¹ | ACI-7079-2605B3-Ab2 (antibody, V domains shown) VH: EVQLVESGGGLVQPKGSLKLSCAASGFIFKTYAMHWVRQAPGKGLEWVARIRSKGGNYATYFADSVKDRFTISRDDSQNMLYLQVNNLKIEDTAMYFCVRGGNYSWFAYWGQGTLVTVSA VL: QIVLTQSPAIMSASPGEKVTMTCSASSSVTYMHWYQQKSGTSPKRWIYDTSQLASGVPARFSGSGSGTSHSLTISSMETEDAATYYCQQWTRNPPTFGGGTKLAIK |
| 16.1 nM | 0.00218 s⁻¹ | 345000 M⁻¹ s⁻¹ | 7.2 nM | 0.00114 s⁻¹ | 158000 M⁻¹ s⁻¹ | ACI-7067-1107G5-Ab2 (antibody, V domains shown) VH: QVQLQQPGTELVKPGASVKLSCKASGYTFTKYWMHWVKQRPGQGLEWIGNINPNNGDTNYNEKFKSKATLTVDKSSSTAYMQLSSLTSEDSAVYYCAIAMDYWGQGTSVTVSS VL: DIQMTQSPSSLSAFLGERVSLTCRASQDIGNNLNWFQQEPDGTIKRLIYATSSLDSGVPKRFSGSRSGSEYSLTISSLESEDFVDYYCLQFGSSPLTFGAGTKLELK |
| 40.3 nM | 51.7 s⁻¹ | 1.28e+09 M⁻¹ s⁻¹ | 10.9 nM | 6.06 s⁻¹ | 5.58e+08 M⁻¹ s⁻¹ | ACI-7079-2603C1-Ab3 (antibody, V domains shown) VH: QVQLQQPGADLVKPGASVKLSCKASGYTFTSYWMQWTKQRPGQGLEWIGEIDPSDSYANYNQKFKGKATLTVDKYSSTAYMQLNSLTSEDSAVYYCALYDGPSYWGQGTLVTVS VL: ENVLTQSPAIMSASPGEKVTMTCSAGSSVSYMHWFQQKSSTSPKLWIYDTSKLPSGVPGRFSGSGSGNSYSLTISSMEAEDVATYYCFQGSGYPYTFGGGTKLEIK |
| 56.2 nM | 0.000862 s⁻¹ | 15400 M⁻¹ s⁻¹ | 4.8 nM | 0.00412 s⁻¹ | 860000 M⁻¹ s⁻¹ | ACI-7079-2606A6-Ab2 (antibody, V domains shown) VH: QVQLQQSGPELVKPGASVKISCKASGFAFSSSWMNWVKQRPGKGLEWVGRIFPGDGDTNYDRKFKDKATLTADKSSSTAYMQLSSLTSEDSAVYFCARWTGGYDWFAYWGQGTLVTVSA VL: DIVLTQSPASLAVSLGQRATISCRASQSVSTSNYNYLHWYQQKPGQPPKLLITYASNLESGVPARFSGSGSGTDFTLNIHPVEEGDTATYYCQHSWEIPLTFGAGTKLELK |
| 0.1 nM | 4.37e-06 s⁻¹ | 30600 M⁻¹ s⁻¹ | – | – | – | ACI-8033-5A12-Ab1 (antibody, V domains shown) VH: QVHLKQSGADLVRPGASVKLSCKASGYTFTDYYINWVKQRPGQGLEWIARIYPGSGNTYYNEKFKGRATLSAEKSSTTAYMQLSSLTSEDSAVYFCVVGYYGAWGQGTTLTVSS VL: DVVMTQTPLSLPVSLGDQASISCRSSQSLVHSNGKTHLHWYLQKPGQSPKLLIYKVSNRFSGVPDRFSGSGSGTDFTLKISRVEAEDLGVYFCSQSTHVPWTFGGGTKLEIK |
